In the Human Domainome abundance scans (Beltran et al. 2025):

B1: Intersectin-1, residues 1156 to 1213; numbered along this chain, Q15811 (parent)
chain: AVCQVIGMYDYTAQNDDELAFNKGQIINVLNKEDPDWWKGEVNGQVGLFPSNYVKLTT

Variants of: B1
Assay: abundance fitness (aPCA) (normalised: wild type 0, dead -1); higher = more abundant; growth selection in yeast, the domain comes from the species named
Details: Homo sapiens

Abundance fitness, by site and new letter:
C3: D -0.033; Y -0.184; H -0.706; V -0.374; T -0.123; R -0.555; W -0.449; L -0.387; M -0.094; S -0.452; N -0.252; A -0.463; P -0.901; K -0.597; Q -0.606; G -0.308; F -0.155
Y11: D -0.928; L -0.851; V -0.765; F -0.271; C -0.509; W -0.932; N -0.937; M -0.698; S -0.769; G -0.655; K -0.879; H 0.077; I -0.563; T -0.555; R -0.374; P -0.759; Q -0.692; E -0.809
G7: Y -1.13; N -1.15; L -0.618; D -0.721; K -0.772; V -0.551; F -0.739; H -0.466; S 0.309; R -0.849; M -0.681; W -0.775; P -0.519; C 0.176; Q -0.893; A 0.54
A20: G 0.1; Q 0.092; Y -0.662; D -0.286; T 0.127; P -0.123; R -0.292; N -0.484; L -0.796; H -0.268; M -0.545; K -0.236; E -0.149; W -0.415; C -0.152; F -0.673; I -0.793; S -0.079
N15: P -0.964; G 0.047; D -0.185; A -0.131; E -0.17; R 0.038; K 0.047; T 0.024; H -0.433; L -0.612; W -0.635; Q -0.185; F -0.539; V -0.639; S 0.085; I -0.664
F21: G -0.772; R -0.686; I -0.266; W -0.718; C -1.01; L -0.687; D -0.656; M -0.643; A -0.913; V 0.013; S -0.927; T -0.985; Y -1.06; Q -1.13; P -1.06; H -0.724; K -0.527; E -0.745
T12: H -0.108; C -0.464; F -0.39; V -0.165; L -0.369; A -0.075; K -0.178; Y -0.289; M -0.168; G -0.424; D -0.203; N 0.01; R -0.072; I -0.608; Q -0.345; W -0.629
V5: N -0.902; W -0.574; Y -0.309; F -0.772; E -0.843; C 0.005; R -0.831; K -0.708; T -0.526; S -0.813; D -0.711; H -0.644; Q -0.673; L -0.891; P -0.94; M -0.737; I -0.823; A -0.045; G -0.309
D10: C -0.472; Q -0.625; F -1.01; H -0.262; V -0.661; R -0.335; I -0.919; N -0.227; L -0.724; S -0.093; P -0.246; M 0.001; A -0.217; W -0.507; G -0.59; Y -0.838
M8: P -0.914; L 0.333; T -0.002; I 0.542; D -0.67; F -0.286; H -0.167; G -0.51; C -0.02; E 0.541; R 0.145; N -0.576; A 0.209; W -0.3; S -0.233; Q 0.31; Y -0.472
I6: D -0.922; G -0.64; W -0.688; Q -0.156; Y -0.548; T -0.388; E -0.013; N -0.765; L -0.47; C -0.386; A -0.639; F -0.619; S -0.655; M -0.092; K -0.269; R -0.446; V 0.159
Y9: L 0.263; N 0.418; T 0.257; E 0.338; R 0.538; I 0.431; A 0.362; H 0.278; D 0.196; V 0.336; G -0.164; C 0.387; K 0.474; Q 0.535; F 0.259; P -0.835
Q14: A -0.267; Y -0.922; M -0.284; R 0.038; T -0.255; G -0.186; I -0.58; E -0.122; L -0.441; C -0.582; H -0.505; W -0.723; D -0.285; P -0.844; V -0.263; K 0.161
L19: K -0.908; W -0.838; V -0.281; N -0.7; P -0.806; D -0.776; T -0.648; S -0.848; E -0.523; I -0.357; Q -0.869; C -0.599; Y -1.04; F -0.733; H -0.858; G -0.726; R -0.764; A -0.9
D16: E 0.059; I -0.108; C -0.166; N -0.302; W -0.726; L -0.3; R -0.293; P -0.259; Y -0.588; T -0.232; A -0.232; H -0.614; G -0.121; Q 0.115; M -0.225; S -0.296
N22: E 0.174; D 0.164; F -0.432; I -0.286; A 0.157; G -0.006; C 0.128
Q4: A -0.826; S -0.277; C -0.57; L -0.538; H -0.373; W -0.451; T -0.207; F -0.719; E -0.629; R -0.354; K -0.236; M -0.527; G -0.6; V -0.488; Y -0.487; D -1.15; P -0.817; I -0.391
E18: S -0.397; P -0.919; R -0.819; W -0.905; F -0.466; K -0.439; N -0.954; Y -0.254; V -0.722; L -0.745; I -0.853; D -0.263; Q 0.036; T -0.908; A -0.646; H -0.208; C -0.309; G -0.317; M -0.696
A13: N -0.839; I -0.735; Q -0.676; D -0.944; S -0.455; M -0.853; R -0.451; L -0.903; T -0.336; P -0.059; Y -0.574; V -0.832; F -0.592; W -0.746; C -0.76; E -0.822
D17: Y -0.359; E -0.03; Q -0.082; M -0.048; G 0.101; K -0.099; N 0.147; S 0.126; C -0.344; R 0.014; I -0.419; P -0.592; F -0.359; T -0.119; H -0.298; V -0.473; L -0.125
V2: W -0.384; Y -0.264; T -0.187
